From patent US11447550B2, “Peptides for molecular detection of PD-L1” (THE CURATORS OF THE UNIVERSITY OF MISSOURI, priority 2016, dated 2022)
Ends that are not written are not given here.

Assays:
PD-L1 [1] = molecular target: T1, PD-L1 (Homo sapiens, UniProt Q9NZQ7); experiment: Flow cytometry using cultured cell lines with Cy5-conjugated peptide; format: cell-based; design: Seven PD-L1 expressing NSCLC patient tissues were obtained from the MU OneHealth tissue bank; tissue MU OneHealth tissue bank; U.S. Biomax (TMA) LC1923; host or cells: FFPE placenta, seven NSCLC patient tissues, 192-case lung cancer tissue microarray, four Hodgkin's lymphoma cases; details: for MFI relative to MDA-MB-231: all lower peptide concentrations, FIG. 6A
Method: Cell lines MDA-MB-231, Y79, and MCF-7 were purchased from ATCC, thawed, and grown in culture to confluency. When confluent, adherent cells were removed from the flask by scraping gently with a cell scraper and media removed using centrifugation. Suspension cells were pipetted from the flask and centrifuged to remove media. Cell lines were resuspended in Eppendorf tubes in 100 μL PBS at a concentration of 5×10^6 cells per mL. Cy5-conjugated peptide solution was then added to the tubes to make the desired concentration of peptide in 200 μL. Eppendorf tubes were then placed in the incubator for 1 hour and vortexed at the 30-minute mark. After 1 hour, cell lines were analyzed on a BD FACS Canto II, a 3-laser, 8-color flow cytometer (San Jose, Calif.) using Diva 8.0 acquisition and analysis software (San Jose, Calif.). The cells of interest were gated using Forward and Side scatter (FSC/SSC) and positive antibody expression. 10,000 singlet events were collected for each specimen.
RK-10-Cy5 was then investigated for PD-L1 specificity using flow cytometry in cultured cell lines and patient tissues. […] To set our conditions for flow cytometry, titrations of PD-L1 peptide using all three cell lines were first examined. In each of the samples double-positives were selected by analyzing expression of both cytokeratin (FITC channel) and PD-L1 (Cy5 channel) (FIG. 15). […] Samples containing 0.1 and 0.05 mg/mL concentrations were deemed to have fluorescence intensities too high for accurate analysis for each cell line. Y79 and MCF7 both have a much lower PD-L1 expression than MDA-MB-231, which correlates with expression seen using Cy5 conjugated peptide and comparing the cell lines with flow cytometry. […] The MCF7 sample containing 0.005 mg/ml was much higher than anticipated due to this sample being treated twice with peptide. 0.005 mg/mL was selected as optimal concentration based on these comparisons, and all subsequent flow cytometry experiments were performed using this concentration. Lung cancer cell lines A549 (low PD-L1) and HCC827 (high PD-L1) were investigated for PD-L1 expression using both phycoerythrin-conjugated cd274 and RK-10-Cy5 (FIG. 6B). Cell lines were cultured as before and treated with either antibody or peptide in buffer. […] The antibody associated fluorescence was higher than the peptide associated fluorescence in both samples, which is attributed to differences in titrating peptide and antibody.

PD-L1 [2] = molecular target: T1, PD-L1; experiment: Flow cytometry using patient tissues and whole blood; format: cell-based; design: Seven PD-L1 expressing NSCLC patient tissues were obtained from the MU OneHealth tissue bank; tissue MU OneHealth tissue bank; U.S. Biomax (TMA) LC1923; host or cells: FFPE placenta, seven NSCLC patient tissues, 192-case lung cancer tissue microarray, four Hodgkin's lymphoma cases
Method: Cases were evaluated using flow cytometry for suspected hematopoietic neoplasms. A portion of each fresh specimen was collected into RPMI. […] Any erythrocytes within the specimens were lysed with BD PharmLyse (San Jose, Calif.) and the specimens were washed with BD Staining Buffer with BSA (San Jose, Calif.). Each sample was evaluated using BD FACSCanto II, a three laser, eight-color flow cytometer (San Jose, Calif.) within 24 hours of collection. 50,000 events were collected for each sample. The expression data were analyzed using BD FACSDiva software, version 8.0 (San Jose, Calif.). Cases diagnosed as non-hematopoietic tumors were further subjected to evaluation with PDL-1 peptide if material was available combined with CK to identify the epithelial component. The cell suspensions were stained with 10 μl of BD Cytokeratin FITC (clone CAM5.2), 20 μl of Cy5-conjugated peptide solution, and 10 μl of BD Pharmingen CD274 PE (clone MIH1), incubated in the dark for 30 minutes, washed with BD Stain Buffer with BSA, and reconstituted to 500 μl with Stain Buffer with BSA in […] polystyrene tubes for analysis. The specimens were analyzed on the FACS Canto II using the same panel template, gating strategy, and collection events as the cell line specimens.
PD-L1 expression in patient tissues was analyzed using RK-10-Cy5 and compared to expression in MDA-MB-231 cells and a negative control of normal blood (FIG. 7A). The MFI of the MDA-MB-231 cells was 9,448, while the whole blood gave an MFI of −123. Squamous cell carcinoma and metastatic melanoma samples were investigated for PD-L1 expression using the previously mentioned MFIs as high and negative, respectively. The squamous cell carcinoma was shown as having an MFI of 107,808, while the melanoma sample gave an MFI of 1,250. […] Since […] is consistent with circulating tumor cells, it was thought that RK-10-Cy5 peptide could be used to detect CTCs. To see whether detection of low cell counts was possible, whole blood samples were spiked with MDA-MB-231 cells. MDA-MB-231 were diluted with whole blood, then treated with RK-10-Cy5 and cytokeratin before staining. These samples were also treated with a phycoerythrin-conjugated antibody (cd274) against PD-L1 to further verify PD-L1 detection. Positive signals were detected of cytokeratin and PD-L1 expression at low counts of ˜15 cells in 1 mL whole blood sample using both the peptide and the antibody (FIG. 7B).

T1 sequence (Q9NZQ7 19-290): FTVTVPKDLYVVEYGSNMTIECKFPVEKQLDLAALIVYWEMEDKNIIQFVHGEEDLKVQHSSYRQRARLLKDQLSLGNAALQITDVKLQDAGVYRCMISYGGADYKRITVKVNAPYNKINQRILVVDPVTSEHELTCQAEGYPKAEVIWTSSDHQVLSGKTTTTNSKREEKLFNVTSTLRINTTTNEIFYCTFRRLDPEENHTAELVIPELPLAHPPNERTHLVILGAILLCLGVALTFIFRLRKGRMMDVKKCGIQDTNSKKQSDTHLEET

MFI relative to MDA-MB-231 (PD-L1 [1]; MCF7 cells (no meaningful PD-L1 expression)): close to tenfold lower
mean fluorescence intensity (MFI) (PD-L1 [1]; MDA-MB-231 cells (very high PD-L1), Cy5 channel, 0.005 mg/mL peptide, FIG. 7A): 9,448
MFI relative to MDA-MB-231 (PD-L1 [1]; Y79 cells (no meaningful PD-L1 expression)): close to tenfold lower
signal associated with PD-L1 expression, HCC827 versus A549 (PD-L1 [1]; lung cancer lines HCC827 (high PD-L1) vs A549 (low PD-L1), FIG. 6B): much higher signal
mean fluorescence intensity (MFI) (PD-L1 [2]; metastatic melanoma patient sample): 1,250
mean fluorescence intensity (MFI) (PD-L1 [2]; normal whole blood (negative control), FIG. 7A): −123
mean fluorescence intensity (MFI) (PD-L1 [2]; squamous cell carcinoma patient sample): 107,808
low cell count at which positive cytokeratin and PD-L1 signals were detected (PD-L1 [2]; whole blood spiked with MDA-MB-231 cells, FIG. 7B): ~15 cells in 1 mL whole blood
Substance: Cy5-GSGSGSTYLCGAISLAPKAQIKESL [RK-10-Cy5]
